Test results taken from publication PMC2064205 (The Journal of Cell Biology, 2007).

Experiments:
HA3-Ard1 = target: T1, HA3-Ard1 (human, UniProt P41227 1-235); assay: co-IP
T1 sequence: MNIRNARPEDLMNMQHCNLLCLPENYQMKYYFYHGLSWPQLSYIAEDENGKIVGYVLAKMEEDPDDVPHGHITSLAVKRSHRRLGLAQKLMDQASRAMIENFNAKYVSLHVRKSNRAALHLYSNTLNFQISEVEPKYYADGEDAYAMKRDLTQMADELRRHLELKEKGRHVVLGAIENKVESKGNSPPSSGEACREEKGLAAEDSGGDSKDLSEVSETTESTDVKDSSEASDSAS

HA3-San = target: T2, HA3-San (human, UniProt Q9GZZ1 1-169); assay: co-IP
T2 sequence: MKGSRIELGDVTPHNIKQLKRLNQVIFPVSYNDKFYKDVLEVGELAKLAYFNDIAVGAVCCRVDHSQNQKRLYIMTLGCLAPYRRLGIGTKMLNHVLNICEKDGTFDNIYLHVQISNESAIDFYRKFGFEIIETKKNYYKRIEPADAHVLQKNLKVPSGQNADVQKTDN

B1: San (endogenous) (natural protein)
chain: MKGSRIELGDVTPHNIKQLKRLNQVIFPVSYNDKFYKDVLEVGELAKLAYFNDIAVGAVCCRVDHSQNQKRLYIMTLGCLAPYRRLGIGTKMLNHVLNICEKDGTFDNIYLHVQISNESAIDFYRKFGFEIIETKKNYYKRIEPADAHVLQKNLKVPSGQNADVQKTDN
In the case of B1, the “percent of input pulled down” value (HA3-Ard1) is reported as < 10 % of input.

B2: NatH (endogenous) (natural protein)
chain: MPAVSLPPKENALFKRILRCYEHKQYRNGLKFCKQILSNPKFAEHGETLAMKGLTLNCLGKKEEAYELVRRGLRNDLKSHVCWHVYGLLQRSDKKYDEAIKCYRNALKWDKDNLQILRDLSLLQIQMRDLEGYRETRYQLLQLRPAQRASWIGYAIAYHLLEDYEMAAKILEEFRKTQQTSPDKVDYEYSELLLYQNQVLREAGLYREALEHLCTYEKQICDKLAVEETKGELLLQLCRLEDAADVYRGLQERNPENWAYYKGLEKALKPANMLERLKIYEEAWTKYPRGLVPRRLPLNFLSGEKFKECLDKFLRMNFSKGCPPVFNTLRSLYKDKEKVAIIEELVVGYETSLKSCRLFNPNDDGKEEPPTTLLWVQYYLAQHYDKIGQPSIALEYINTAIESTPTLIELFLVKAKIYKHAGNIKEAARWMDEAQALDTADRFINSKCAKYMLKANLIKEAEEMCSKFTREGTSAVENLNEMQCMWFQTECAQAYKAMNKFGEALKKCHEIERHFIEITDDQFDFHTYCMRKITLRSYVDLLKLEDVLRQHPFYFKAARIAIEIYLKLHDNPLTDENKEHEADTANMSDKELKKLRNKQRRAQKKAQIEEEKKNAEKEKQQRNQKKKKDDDDEEIGGPKEELIPEKLAKVETPLEEAIKFLTPLKNLVKNKIETHLFAFEIYFRKEKFLLMLQSVKRAFAIDSSHPWLHECMIRLFNTAVCESKDLSDTVRTVLKQEMNRLFGATNPKNFNETFLKRNSDSLPHRLSAAKMVYYLDPSSQKRAIELATTLDESLTNRNLQTCMEVLEALYDGSLGDCKEAAEIYRANCHKLFPYALAFMPPGYEEDMKITVNGDSSAEAEELANEI
For B2, the “percent of input pulled down” value (HA3-San) was > 10 % of input.

B3: Ard1 (endogenous) (natural protein)
chain: MNIRNARPEDLMNMQHCNLLCLPENYQMKYYFYHGLSWPQLSYIAEDENGKIVGYVLAKMEEDPDDVPHGHITSLAVKRSHRRLGLAQKLMDQASRAMIENFNAKYVSLHVRKSNRAALHLYSNTLNFQISEVEPKYYADGEDAYAMKRDLTQMADELRRHLELKEKGRHVVLGAIENKVESKGNSPPSSGEACREEKGLAAEDSGGDSKDLSEVSETTESTDVKDSSEASDSAS
In the case of B3, the “percent of input pulled down” value (HA3-San) is reported as > 10 % of input.
